Reference: PMC6042327 (BMC Biology, 2018)

B1: SGTA NT-TPR (1-213) (domain or fragment, human, UniProt O43765 1-213, looked up)
chain: MDNKKRLAYAIIQFLHDQLRHGGLSSDAQESLEVAIQCLETAFGVTVEDSDLALPQTLPEIFEAAATGKEMPQDLRSPARTPPSEEDSAEAERLKTEGNEQMKVENFEAAVHFYGKAIELNPANAVYFCNRAAAYSKLGNYAGAVQDCERAICIDPAYSKAYGRMGLALSSLNKHVEAVAYYKKALELDPDNETYKSNLKIAELKLREAPSPT
notes: SGTA, human, residues 1-213 (N-terminal dimerisation domain and TPR domain); also called version lacking the C-terminal domain; not shown: thioredoxin A, N-terminal, cleaved; His6, N-terminal, cleaved
B2: SGTA C-terminal domain (CT; residues 213-313) (domain or fragment, human, UniProt O43765 213-313, looked up)
chain: TGGVGSFDIAGLLNNPGFMSMASNLMNNPQIQQLMSGMISGGNNPLGTPGTSPSQNDLASLIQAGQQFAQQMQQQNPELIEQLRSQIRSRTPSASNDDQQE
notes: small glutamine-rich tetratricopeptide repeat-containing protein alpha (SGTA), human, residues 213-313 (complete C-terminal domain); also called C-terminal domain of SGTA; not shown: thioredoxin A, N-terminal, cleaved; His6, N-terminal, cleaved
B3: SGTA NT-TPR S88C single-cysteine mutant, MTSL spin-labelled (domain or fragment, human, UniProt O43765 1-213, looked up)
chain: MDNKKRLAYAIIQFLHDQLRHGGLSSDAQESLEVAIQSLETAFGVTVEDSDLALPQTLPEIFEAAATGKEMPQDLRSPARTPPSEEDCAEAERLKTEGNEQMKVENFEAAVHFYGKAIELNPANAVYFSNRAAAYSKLGNYAGAVQDSERAISIDPAYSKAYGRMGLALSSLNKHVEAVAYYKKALELDPDNETYKSNLKIAELKLREAPSPT
modifications: MTSL spin label on cysteine 88
notes: SGTA, human, residues 1-213; all four wild-type cysteines changed to serine, then S88C; also called C-terminal deletion mutant S88C; source: E. coli, prepared in the same way as the wild-type versions, MTSL spin-labelled, size-exclusion chromatography; not shown: thioredoxin A, N-terminal, cleaved; His6, N-terminal, cleaved
B4: SGTA NT-TPR S197C single-cysteine mutant, MTSL spin-labelled (domain or fragment, human, UniProt O43765 1-213, looked up)
chain: MDNKKRLAYAIIQFLHDQLRHGGLSSDAQESLEVAIQSLETAFGVTVEDSDLALPQTLPEIFEAAATGKEMPQDLRSPARTPPSEEDSAEAERLKTEGNEQMKVENFEAAVHFYGKAIELNPANAVYFSNRAAAYSKLGNYAGAVQDSERAISIDPAYSKAYGRMGLALSSLNKHVEAVAYYKKALELDPDNETYKCNLKIAELKLREAPSPT
modifications: MTSL spin label on cysteine 197
notes: SGTA, human, residues 1-213; all four wild-type cysteines changed to serine, then S197C; also called C-terminal deletion mutant S197C; source: E. coli, prepared in the same way as the wild-type versions, MTSL spin-labelled, size-exclusion chromatography; not shown: thioredoxin A, N-terminal, cleaved; His6, N-terminal, cleaved
B5: SGTA NT-TPR S136C single-cysteine mutant, MTSL spin-labelled (domain or fragment, human, UniProt O43765 1-213, looked up)
chain: MDNKKRLAYAIIQFLHDQLRHGGLSSDAQESLEVAIQSLETAFGVTVEDSDLALPQTLPEIFEAAATGKEMPQDLRSPARTPPSEEDSAEAERLKTEGNEQMKVENFEAAVHFYGKAIELNPANAVYFSNRAAAYCKLGNYAGAVQDSERAISIDPAYSKAYGRMGLALSSLNKHVEAVAYYKKALELDPDNETYKSNLKIAELKLREAPSPT
modifications: MTSL spin label on cysteine 136
notes: SGTA, human, residues 1-213; all four wild-type cysteines changed to serine, then S136C; also called C-terminal deletion mutant S136C; source: E. coli, prepared in the same way as the wild-type versions, MTSL spin-labelled, size-exclusion chromatography; not shown: thioredoxin A, N-terminal, cleaved; His6, N-terminal, cleaved
B6: SGTA NT-TPR C153 single-cysteine variant, MTSL spin-labelled (domain or fragment, human, UniProt O43765 1-213, looked up)
chain: MDNKKRLAYAIIQFLHDQLRHGGLSSDAQESLEVAIQSLETAFGVTVEDSDLALPQTLPEIFEAAATGKEMPQDLRSPARTPPSEEDSAEAERLKTEGNEQMKVENFEAAVHFYGKAIELNPANAVYFSNRAAAYSKLGNYAGAVQDSERAICIDPAYSKAYGRMGLALSSLNKHVEAVAYYKKALELDPDNETYKSNLKIAELKLREAPSPT
modifications: MTSL spin label on cysteine 153
notes: SGTA, human, residues 1-213; the other three wild-type cysteines changed to serine, wild-type C153 kept; also called C-terminal deletion mutant C153; source: E. coli, prepared in the same way as the wild-type versions, MTSL spin-labelled, size-exclusion chromatography; not shown: thioredoxin A, N-terminal, cleaved; His6, N-terminal, cleaved
B7: FL SGTA C153 single-cysteine variant, MTSL spin-labelled (natural protein, human, UniProt O43765 1-313, looked up)
chain: MDNKKRLAYAIIQFLHDQLRHGGLSSDAQESLEVAIQSLETAFGVTVEDSDLALPQTLPEIFEAAATGKEMPQDLRSPARTPPSEEDSAEAERLKTEGNEQMKVENFEAAVHFYGKAIELNPANAVYFSNRAAAYSKLGNYAGAVQDSERAICIDPAYSKAYGRMGLALSSLNKHVEAVAYYKKALELDPDNETYKSNLKIAELKLREAPSPTGGVGSFDIAGLLNNPGFMSMASNLMNNPQIQQLMSGMISGGNNPLGTPGTSPSQNDLASLIQAGQQFAQQMQQQNPELIEQLRSQIRSRTPSASNDDQQE
modifications: MTSL spin label on cysteine 153
notes: SGTA, human, residues 1-313; the other three wild-type cysteines changed to serine, wild-type C153 kept; source: E. coli, prepared in the same way as the wild-type versions, MTSL spin-labelled, size-exclusion chromatography; not shown: thioredoxin A, N-terminal, cleaved; His6, N-terminal, cleaved
B8: FL SGTA S136C single-cysteine mutant, MTSL spin-labelled (natural protein, human, UniProt O43765 1-313, looked up)
chain: MDNKKRLAYAIIQFLHDQLRHGGLSSDAQESLEVAIQSLETAFGVTVEDSDLALPQTLPEIFEAAATGKEMPQDLRSPARTPPSEEDSAEAERLKTEGNEQMKVENFEAAVHFYGKAIELNPANAVYFSNRAAAYCKLGNYAGAVQDSERAISIDPAYSKAYGRMGLALSSLNKHVEAVAYYKKALELDPDNETYKSNLKIAELKLREAPSPTGGVGSFDIAGLLNNPGFMSMASNLMNNPQIQQLMSGMISGGNNPLGTPGTSPSQNDLASLIQAGQQFAQQMQQQNPELIEQLRSQIRSRTPSASNDDQQE
modifications: MTSL spin label on cysteine 136
notes: SGTA, human, residues 1-313; all four wild-type cysteines changed to serine, then S136C; source: E. coli, prepared in the same way as the wild-type versions, MTSL spin-labelled, size-exclusion chromatography; not shown: thioredoxin A, N-terminal, cleaved; His6, N-terminal, cleaved
B9: FL SGTA S88C single-cysteine mutant, MTSL spin-labelled (natural protein, human, UniProt O43765 1-313, looked up)
chain: MDNKKRLAYAIIQFLHDQLRHGGLSSDAQESLEVAIQSLETAFGVTVEDSDLALPQTLPEIFEAAATGKEMPQDLRSPARTPPSEEDCAEAERLKTEGNEQMKVENFEAAVHFYGKAIELNPANAVYFSNRAAAYSKLGNYAGAVQDSERAISIDPAYSKAYGRMGLALSSLNKHVEAVAYYKKALELDPDNETYKSNLKIAELKLREAPSPTGGVGSFDIAGLLNNPGFMSMASNLMNNPQIQQLMSGMISGGNNPLGTPGTSPSQNDLASLIQAGQQFAQQMQQQNPELIEQLRSQIRSRTPSASNDDQQE
modifications: MTSL spin label on cysteine 88
notes: SGTA, human, residues 1-313; all four wild-type cysteines changed to serine, then S88C; source: E. coli, prepared in the same way as the wild-type versions, MTSL spin-labelled, size-exclusion chromatography; not shown: thioredoxin A, N-terminal, cleaved; His6, N-terminal, cleaved
B10: FL SGTA S197C single-cysteine mutant, MTSL spin-labelled (natural protein, human, UniProt O43765 1-313, looked up)
chain: MDNKKRLAYAIIQFLHDQLRHGGLSSDAQESLEVAIQSLETAFGVTVEDSDLALPQTLPEIFEAAATGKEMPQDLRSPARTPPSEEDSAEAERLKTEGNEQMKVENFEAAVHFYGKAIELNPANAVYFSNRAAAYSKLGNYAGAVQDSERAISIDPAYSKAYGRMGLALSSLNKHVEAVAYYKKALELDPDNETYKCNLKIAELKLREAPSPTGGVGSFDIAGLLNNPGFMSMASNLMNNPQIQQLMSGMISGGNNPLGTPGTSPSQNDLASLIQAGQQFAQQMQQQNPELIEQLRSQIRSRTPSASNDDQQE
modifications: MTSL spin label on cysteine 197
notes: SGTA, human, residues 1-313; all four wild-type cysteines changed to serine, then S197C; source: E. coli, prepared in the same way as the wild-type versions, MTSL spin-labelled, size-exclusion chromatography; not shown: thioredoxin A, N-terminal, cleaved; His6, N-terminal, cleaved

Molecular target: the molecule itself
Test: native MS; protein 5-10 uM in 0.20-0.75 M ammonium acetate pH 7.0, electrosprayed, source temperature 20 °C; self-association (monomer to dimer)

Question: How did the “stoichiometry N” value turn out when B1 was run?
Answer: Its value is 2.

Question: How did the “stoichiometry N” value turn out when B2 was run?
Answer: Its value is 2.

Molecular target: the molecule itself
Test: DEER (EPR) spectroscopy; MTSL spin label on a single cysteine; distances between homologous sites in each monomer; 300-500 uM, D2O buffer with 50% d8-glycerol, flash frozen, measured at 50 K

Question: Does B3 bind?
Answer: Result: binds

Question: Does B4 bind?
Answer: Result: binds

Question: Does B5 bind?
Answer: Result: binds

Question: Does B6 bind?
Answer: Result: binds

Question: Does B7 bind?
Answer: Result: binds

Question: Does B8 bind?
Answer: Result: binds

Question: Does B9 bind?
Answer: Result: binds

Question: Does B10 bind?
Answer: Result: binds
